# Experimental data published in the supplement of paper PMC9112550, “Optimization of the antimicrobial peptide Bac7 by deep mutational scanning” (BMC Biology, 2022).
# Test system: Escherichia coli TOP10
# Assay: shrunken log2 fold change of peptide-encoding DNA abundance (4.5 h post-induction vs induction); higher = less antimicrobial activity (less host growth inhibition)
# Conditions: time post-induction: 4.5 h; library: site-saturation at positions 5, 18, 19, 20
# 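Also: peptides expressed intracellularly from a pBAD plasmid library in pooled LB shake-flask culture, induced with 0.3% L-arabinose, DNA abundance read by NGS, three biological replicates, DESeq2 with apeglm shrinkage.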
row,Sequence,shrunken log2 fold change
1,RRIRWRPPRLPRPRPRPKHNPRP,-0.152
2,RRIRMRPPRLPRPRPRPIGIPRP,-0.0706
3,RRIRTRPPRLPRPRPRPLLNPRP,-0.157
4,RRIRVRPPRLPRPRPRPMPKPRP,0.0271
5,RRIRPRPPRLPRPRPRPTCKPRP,-0.0419
6,RRIRIRPPRLPRPRPRPFFKPRP,-0.629
7,RRIRNRPPRLPRPRPRPFDYPRP,-0.262
8,RRIRRRPPRLPRPRPRPGQFPRP,0.0178
9,RRIRCRPPRLPRPRPRPNVTPRP,0.632
10,RRIRKRPPRLPRPRPRPIYLPRP,-0.305
11,RRIRMRPPRLPRPRPRPEPIPRP,0.0584
12,RRIRSRPPRLPRPRPRPHQPPRP,-0.00655
13,RRIRYRPPRLPRPRPRPNGEPRP,-0.0103
14,RRIRGRPPRLPRPRPRPLWGPRP,0.583
15,RRIRTRPPRLPRPRPRPWAEPRP,-0.0837
16,RRIRTRPPRLPRPRPRPYRVPRP,0.0325
17,RRIRHRPPRLPRPRPRPQCTPRP,-0.124
18,RRIRYRPPRLPRPRPRPAIVPRP,-0.0768
19,RRIRNRPPRLPRPRPRPAEGPRP,0.0922
20,RRIRHRPPRLPRPRPRPTGGPRP,0.0928
21,RRIRGRPPRLPRPRPRPDHMPRP,0.0349
22,RRIRNRPPRLPRPRPRPKSKPRP,0.0844
23,RRIRVRPPRLPRPRPRPFRNPRP,-0.0529
24,RRIRERPPRLPRPRPRPAIHPRP,0.125
25,RRIRKRPPRLPRPRPRPTVNPRP,0.402

row,Sequence,shrunken log2 fold change
1,RRIRDRPPRLPRPRPRPPFWPRP,0.185
2,RRIRDRPPRLPRPRPRPRTCPRP,-0.0386
3,RRIRIRPPRLPRPRPRPITRPRP,0.0378
4,RRIRTRPPRLPRPRPRPTKIPRP,-0.169
5,RRIRARPPRLPRPRPRPTNEPRP,0.344
6,RRIRERPPRLPRPRPRPQDSPRP,-0.222
7,RRIRFRPPRLPRPRPRPCNCPRP,-0.166
8,RRIRCRPPRLPRPRPRPFKSPRP,0.122
9,RRIRMRPPRLPRPRPRPGACPRP,0.73
10,RRIRERPPRLPRPRPRPRYGPRP,1.59
11,RRIRVRPPRLPRPRPRPTQHPRP,0.155
12,RRIRTRPPRLPRPRPRPMVQPRP,0.0197
13,RRIRARPPRLPRPRPRPPIRPRP,-0.131
14,RRIRVRPPRLPRPRPRPCWWPRP,0.297
15,RRIRIRPPRLPRPRPRPLFCPRP,-0.517
16,RRIRARPPRLPRPRPRPSSQPRP,0.144
17,RRIRYRPPRLPRPRPRPSNDPRP,-0.29
18,RRIRLRPPRLPRPRPRPWEAPRP,-0.229
19,RRIRTRPPRLPRPRPRPDNTPRP,-0.191
20,RRIRGRPPRLPRPRPRPETRPRP,0.109
21,RRIRNRPPRLPRPRPRPYFCPRP,-0.5
22,RRIRIRPPRLPRPRPRPRVMPRP,0.0377
23,RRIRRRPPRLPRPRPRPLLRPRP,0.44
24,RRIRQRPPRLPRPRPRPTAPPRP,0.0785
25,RRIRDRPPRLPRPRPRPWTMPRP,-0.0209

row,Sequence,shrunken log2 fold change
1,RRIRYRPPRLPRPRPRPRMFPRP,-0.306
2,RRIRKRPPRLPRPRPRPTKNPRP,0.392
3,RRIRGRPPRLPRPRPRPPMAPRP,0.94
4,RRIRDRPPRLPRPRPRPRQPPRP,0.252
5,RRIRERPPRLPRPRPRPPGQPRP,0.104
6,RRIRWRPPRLPRPRPRPKWPPRP,0.477
7,RRIRVRPPRLPRPRPRPRHTPRP,0.226
8,RRIRMRPPRLPRPRPRPPYHPRP,-0.0913
9,RRIRGRPPRLPRPRPRPCKNPRP,0.397
10,RRIRLRPPRLPRPRPRPLYFPRP,-0.646
11,RRIRNRPPRLPRPRPRPSPNPRP,-0.552
12,RRIRTRPPRLPRPRPRPKEDPRP,0.262
13,RRIRDRPPRLPRPRPRPGTMPRP,-0.302
14,RRIRKRPPRLPRPRPRPIASPRP,0.0246
15,RRIRKRPPRLPRPRPRPYEIPRP,-0.0117
16,RRIRSRPPRLPRPRPRPPYQPRP,0.144
17,RRIRARPPRLPRPRPRPNKGPRP,-0.0254
18,RRIRDRPPRLPRPRPRPSIQPRP,-0.0741
19,RRIRARPPRLPRPRPRPSWAPRP,0.106
20,RRIRFRPPRLPRPRPRPPEDPRP,0.357
21,RRIRIRPPRLPRPRPRPMVWPRP,0.0906
22,RRIRCRPPRLPRPRPRPMTKPRP,0.0306
23,RRIRGRPPRLPRPRPRPEFCPRP,1.23
24,RRIRQRPPRLPRPRPRPFESPRP,-0.00719
25,RRIRHRPPRLPRPRPRPHHWPRP,-0.156

row,Sequence,shrunken log2 fold change
1,RRIRSRPPRLPRPRPRPRNHPRP,-0.0799
2,RRIRYRPPRLPRPRPRPINSPRP,-0.184
3,RRIRDRPPRLPRPRPRPRLWPRP,0.842
4,RRIRIRPPRLPRPRPRPPTNPRP,0.0455
5,RRIRLRPPRLPRPRPRPVHTPRP,-0.0875
6,RRIRIRPPRLPRPRPRPNHIPRP,-1.16
7,RRIRMRPPRLPRPRPRPKFSPRP,0.0925
8,RRIRERPPRLPRPRPRPYDWPRP,-0.0444
9,RRIRYRPPRLPRPRPRPHMPPRP,-0.38
10,RRIRQRPPRLPRPRPRPAIQPRP,-0.679
11,RRIRFRPPRLPRPRPRPQRQPRP,-0.064
12,RRIRQRPPRLPRPRPRPTSIPRP,-0.18
13,RRIRLRPPRLPRPRPRPWKCPRP,-0.391
14,RRIRPRPPRLPRPRPRPCENPRP,-0.0133
15,RRIRFRPPRLPRPRPRPWVLPRP,-0.0735
16,RRIRCRPPRLPRPRPRPDGQPRP,0.101
17,RRIRFRPPRLPRPRPRPRYMPRP,-0.689
18,RRIRERPPRLPRPRPRPTYVPRP,-0.132
19,RRIRVRPPRLPRPRPRPGIIPRP,0.136
20,RRIRTRPPRLPRPRPRPIHHPRP,-0.124
21,RRIRYRPPRLPRPRPRPCQPPRP,-0.354
22,RRIRCRPPRLPRPRPRPWKCPRP,-0.0193
23,RRIRWRPPRLPRPRPRPSHYPRP,-0.557
24,RRIRDRPPRLPRPRPRPSMAPRP,0.202
25,RRIRYRPPRLPRPRPRPPPKPRP,1.24

row,Sequence,shrunken log2 fold change
1,RRIRVRPPRLPRPRPRPGTDPRP,-0.117
2,RRIRFRPPRLPRPRPRPMIFPRP,-0.364
3,RRIRNRPPRLPRPRPRPMEAPRP,0.0369
4,RRIRLRPPRLPRPRPRPICVPRP,0.151
5,RRIRSRPPRLPRPRPRPLLCPRP,-0.039
6,RRIRLRPPRLPRPRPRPCQGPRP,0.00157
7,RRIRFRPPRLPRPRPRPVIAPRP,-0.186
8,RRIRERPPRLPRPRPRPMGYPRP,-0.0965
9,RRIRMRPPRLPRPRPRPTQQPRP,0.54
10,RRIRRRPPRLPRPRPRPLCWPRP,0.623
11,RRIRSRPPRLPRPRPRPEPGPRP,0.197
12,RRIRWRPPRLPRPRPRPFCDPRP,0.189
13,RRIRRRPPRLPRPRPRPIGWPRP,0.217
14,RRIRKRPPRLPRPRPRPTQYPRP,0.0924
15,RRIRCRPPRLPRPRPRPEMSPRP,-0.129
16,RRIRVRPPRLPRPRPRPGLQPRP,0.478
17,RRIRVRPPRLPRPRPRPNWWPRP,0.175
18,RRIRLRPPRLPRPRPRPHTQPRP,-0.31
19,RRIRTRPPRLPRPRPRPFTSPRP,-0.0603
20,RRIRGRPPRLPRPRPRPPKVPRP,0.762
21,RRIRRRPPRLPRPRPRPDIYPRP,0.0543
22,RRIRGRPPRLPRPRPRPAMMPRP,0.51
23,RRIRCRPPRLPRPRPRPAIFPRP,-0.273
24,RRIRFRPPRLPRPRPRPYCSPRP,-0.206
25,RRIRTRPPRLPRPRPRPQIRPRP,-0.312
